Measured values published in article PMC6586891, “On the molecular and cellular effects of omeprazole to further support its effectiveness as an antigiardial drug” (Scientific Reports, 2019).

System: O=CC(O)COP(=O)(O)O
Assay: Michaelis-Menten kinetics of purified enzyme (Km), coupled alpha-GDH/NADH assay
Assay type: biochemical, Giardia duodenalis

Giardia lamblia triosephosphate isomerase (GlTIM Tmut) (Giardia duodenalis; C202A/C222A/C228A)
Km: 1200 ± 90 µM | kcat/Km: 1.92e+06 M⁻¹ s⁻¹
